B1: CPEB3 Ribozyme (parent)
chain: GGGGGCCACAGCAGAAGCGUUCACGUCGCGGCCCCUGUCAGAUUCUGGUGAAUCUGCGAAUUCUGCUGU

Variants of: B1
Experiment: self-cleavage, relative activity (ratio to wild type); higher = more cleavage; co-transcriptional
In the case of G5A A8C, the self-cleavage is reported as 0.953.
For G5U A59U, the self-cleavage was 0.125.
Work on G5C U67G yielded a self-cleavage of 0.355.
For G5C U67A, the self-cleavage was 0.338.
For G5C U67C, the self-cleavage was 0.254.
G5C U69G gave a self-cleavage of 0.437.
With G5C U69A the self-cleavage was 0.307.
In the case of G5A G14A, the self-cleavage is reported as 0.325.
G5A G14C showed a self-cleavage of 0.159.
G5A G14U gave a self-cleavage of 0.365.
With G5A G48A the self-cleavage was 0.918.
With G5A U61G the self-cleavage was 0.468.
G5A U61A showed a self-cleavage of 0.351.
In the case of G5A U61C, the self-cleavage is reported as 0.299.
With G5C C32G the self-cleavage was 0.968.
In the case of G5A C57G, the self-cleavage is reported as 0.234.
Variant G5A C57A has a self-cleavage of 0.224.
G5A C57U gave a self-cleavage of 0.304.
Variant G5A C12G has a self-cleavage of 0.488.
For G5A C12A, the self-cleavage was 0.532.
For G5A U36A, the self-cleavage was 0.146.
Work on G5U A16U yielded a self-cleavage of 0.127.
Work on G5U A16G yielded a self-cleavage of 0.14.
Variant G5U C12U has a self-cleavage of 0.188.
Work on G5U C66A yielded a self-cleavage of 0.19.
For G5C G41C, the self-cleavage was 0.188.
For G5C G41U, the self-cleavage was 0.186.
For G5C G41A, the self-cleavage was 0.194.
G5C G17C showed a self-cleavage of 0.0976.
Variant G5C G17A has a self-cleavage of 0.0588.
G5U C32U showed a self-cleavage of 0.568.
G5U C32G showed a self-cleavage of 0.815.
For G5U C32A, the self-cleavage was 0.953.
In the case of G5A U21A, the self-cleavage is reported as 0.837.
For G5A U21C, the self-cleavage was 0.56.
For G5A C34G, the self-cleavage was 0.155.
G5A C24A showed a self-cleavage of 0.341.
G5A C24U gave a self-cleavage of 0.378.
G5A C24G gave a self-cleavage of 0.0961.
In the case of G5A U38C, the self-cleavage is reported as 0.749.
In the case of G5A U38A, the self-cleavage is reported as 0.816.
G5A U38G gave a self-cleavage of 0.129.
Work on G5C U36G yielded a self-cleavage of 0.458.
Work on G5C U36A yielded a self-cleavage of 0.0886.
In the case of G5C U36C, the self-cleavage is reported as 0.244.
Variant G5U C63U has a self-cleavage of 0.24.
Variant G5U C63G has a self-cleavage of 0.0897.
For G5U C63A, the self-cleavage was 0.114.
G5C U55A showed a self-cleavage of 0.192.
G5A C63A gave a self-cleavage of 0.427.
With G5A C63U the self-cleavage was 0.915.
Variant G5A G47A has a self-cleavage of 0.964.
For G5A G47C, the self-cleavage was 0.914.
For G5C C18G, the self-cleavage was 0.12.
In the case of G5C C18U, the self-cleavage is reported as 0.148.
G5C C18A gave a self-cleavage of 0.097.
G5A C22U gave a self-cleavage of 0.129.
In the case of G5A C22G, the self-cleavage is reported as 0.0902.
Work on G5C U46C yielded a self-cleavage of 0.267.
Work on G5C U46A yielded a self-cleavage of 0.265.
With G5A C32A the self-cleavage was 0.847.
With G5U A8C the self-cleavage was 0.346.
G5U A8G gave a self-cleavage of 0.228.
G5C G58U showed a self-cleavage of 0.207.
Variant G5C G14U has a self-cleavage of 0.109.
G5A A23U gave a self-cleavage of 0.931.
Work on G5A C35G yielded a self-cleavage of 0.134.
For G5A C35U, the self-cleavage was 0.365.
Variant G5A C35A has a self-cleavage of 0.203.
Variant G5A A15U has a self-cleavage of 0.355.
G5A A15C showed a self-cleavage of 0.263.
In the case of G5A C66A, the self-cleavage is reported as 0.727.
For G5A C66G, the self-cleavage was 0.826.
For G5C C57G, the self-cleavage was 0.098.
G5C C57A showed a self-cleavage of 0.0507.
G5C A42C showed a self-cleavage of 0.207.
Work on G5C A42U yielded a self-cleavage of 0.265.
For G5C C54G, the self-cleavage was 0.143.
Variant G5C C54U has a self-cleavage of 0.219.
Variant G5C A52G has a self-cleavage of 0.287.
In the case of G5C A52U, the self-cleavage is reported as 0.123.
For G5C A52C, the self-cleavage was 0.259.
With G5A U62C the self-cleavage was 0.423.
Variant G5C G47U has a self-cleavage of 0.289.
For G5C G47C, the self-cleavage was 0.246.
G5C G47A gave a self-cleavage of 0.201.
For G5U C6U, the self-cleavage was 0.111.
G5C A23C showed a self-cleavage of 0.228.
With G5C A23G the self-cleavage was 0.144.
Work on G5C A23U yielded a self-cleavage of 0.333.
G5C C6G showed a self-cleavage of 0.0983.
G5A C39G showed a self-cleavage of 0.752.
Variant G5A C39A has a self-cleavage of 0.533.
In the case of G5C C7G, the self-cleavage is reported as 0.293.
G5C C7A gave a self-cleavage of 0.684.
With G5C C45U the self-cleavage was 0.266.
Work on G5C C45G yielded a self-cleavage of 0.178.
Variant G5C U61C has a self-cleavage of 0.13.
Work on G5C U61G yielded a self-cleavage of 0.153.
G5C U61A gave a self-cleavage of 0.193.
For G4U U62C, the self-cleavage was 0.369.
G4U U62G showed a self-cleavage of 0.349.
Work on G5U A42G yielded a self-cleavage of 0.343.
For G5U A42U, the self-cleavage was 0.118.
G5U A42C gave a self-cleavage of 0.0793.
Variant G5C C33A has a self-cleavage of 0.302.
G5C C33G gave a self-cleavage of 0.227.
With G5C G19A the self-cleavage was 0.126.
For G5C G19U, the self-cleavage was 0.121.
Work on G5A U67C yielded a self-cleavage of 0.963.
In the case of G5A U67G, the self-cleavage is reported as 0.957.
For G5A U64C, the self-cleavage was 0.676.
For G5A U64A, the self-cleavage was 0.71.
Variant G5A U64G has a self-cleavage of 0.729.
G5C G48A gave a self-cleavage of 0.217.
G5A G28A showed a self-cleavage of 0.1.
G5A G28U showed a self-cleavage of 0.144.
G5A G28C showed a self-cleavage of 0.124.
Variant G5C U43G has a self-cleavage of 0.219.
G5C U43C gave a self-cleavage of 0.173.
G5A U43A showed a self-cleavage of 0.721.
G5A U43G showed a self-cleavage of 0.578.
G5A U43C showed a self-cleavage of 0.77.
G5A U20C showed a self-cleavage of 0.109.
G5A U20G gave a self-cleavage of 0.111.
In the case of G5C C12A, the self-cleavage is reported as 0.141.
Work on G5A G56U yielded a self-cleavage of 0.772.
G5A G56C showed a self-cleavage of 0.407.
With G5A G56A the self-cleavage was 0.759.
For G5C U38G, the self-cleavage was 0.0921.
G5U C45U gave a self-cleavage of 0.291.
For G5U C45A, the self-cleavage was 0.208.
Work on G5C C24U yielded a self-cleavage of 0.112.
G5C C24G gave a self-cleavage of 0.0631.
Variant G5C U21G has a self-cleavage of 0.114.
Work on G5C U21A yielded a self-cleavage of 0.134.
G5C U21C gave a self-cleavage of 0.149.
For G5C C66U, the self-cleavage was 0.151.
G5A U44G showed a self-cleavage of 0.631.
G5A U44C showed a self-cleavage of 0.858.
G5A U44A gave a self-cleavage of 0.655.
G5A A59C showed a self-cleavage of 0.259.
Variant G5A A59G has a self-cleavage of 0.753.
G5A G19A showed a self-cleavage of 0.12.
For G5A G19C, the self-cleavage was 0.0992.
With G5U A60C the self-cleavage was 0.0763.
Variant G5U A60G has a self-cleavage of 0.0935.
G5U A60U gave a self-cleavage of 0.149.
In the case of G5A A60C, the self-cleavage is reported as 0.251.
With G5A A60U the self-cleavage was 0.247.
G5A A60G showed a self-cleavage of 0.515.
G4U U46G showed a self-cleavage of 0.803.
G4U U46C gave a self-cleavage of 0.751.
G5A G37U gave a self-cleavage of 0.165.
In the case of G5A G37C, the self-cleavage is reported as 0.171.
In the case of G5A U46C, the self-cleavage is reported as 0.945.
Variant G5U C54U has a self-cleavage of 0.231.
For G5C G65U, the self-cleavage was 0.0855.
In the case of G5C G65A, the self-cleavage is reported as 0.158.
Variant G5C G65C has a self-cleavage of 0.106.
G5A C27A gave a self-cleavage of 0.141.
Variant G5A C27U has a self-cleavage of 0.201.
G5A C27G gave a self-cleavage of 0.104.
Variant G5U A13U has a self-cleavage of 0.139.
G5U A13G gave a self-cleavage of 0.271.
For G5U C24U, the self-cleavage was 0.0968.
G5U C24G gave a self-cleavage of 0.0967.
